Experimental findings from US20040170955A1 (University of Texas, published 2004) are described below.

Ends that are not written are not given here.

For assay [1], the target named is T1, GST-β3cyto (GST fusion protein of the β3 integrin cytoplasmic domain) (UniProt P05106 742-788).
T1 construct: domain: cytoplasmic domain; Recombinant GST fusion coated on microtiter wells; also called β3-GST; β3 cytoplasmic domain fusion protein; not shown: glutathione S-transferase (GST) fusion partner
Briefly: phosphorylated phage binding, β3 colonies / GST colonies. The protocol:
(§1) Phosphorylation of peptide libraries with src family protein kinases (Fyn, c-Src, Lyn, and Syc) and serine/threonine kinases such as a MAP kinase were performed as described previously (Schmitz et al., 1996; Dente et al., 1997; Gram et al., 1997). Briefly, phage particles were collected from culture supernatants by double precipitation with 20% polyethylene glycol 8000 in 2.5 M NaCl. Particles were dissolved at 10¹² particles/ml. Purified phage (10 μl) were incubated for 3 hours at room temperature with different concentrations (35 to 3,500 units) of protein kinases in a reaction buffer volume of 50 μl. The reaction mixtures were transferred to tubes containing 10 μg of agarose-conjugated anti-P-Tyr, anti-P-Ser, or anti-P-Thr monoclonal antibodies to select phage displaying phosphorylated peptides. Bound phage were eluted by washing the column with 0.3 ml of elution buffer (0.1 M NaCl/glycine/1 mg/ml BSA, pH 2.35). The eluates were neutralized with 2 M Tris-base and incubated with 2 ml of a mid-log bacteria culture.
(§2) Amino acid sequences of the phagemid encoded peptides were deduced from nucleotide sequences.

For assay [2], the target named is T1, GST-β3cyto (GST fusion protein of the …). Briefly: phage binding to β3, colonies with Fyn-phosphorylated phage / unphosphorylated phage. The protocol: as §1, §2
The target is the same in assay [3]. Briefly: phosphorylated phage binding, β3 colonies / BSA colonies. The protocol: as §1, §2
In assay [4] the target is Aminopeptidase A (APA, EC 3.4.11.7) on SK-RC-49/APA cells (UniProt Q07075 1-957, limits assumed). Briefly: cell-based or functional assay.
Sequence of Aminopeptidase A (APA, EC 3.4.11.7) on SK-RC-49/APA cells (Q07075 whole entry): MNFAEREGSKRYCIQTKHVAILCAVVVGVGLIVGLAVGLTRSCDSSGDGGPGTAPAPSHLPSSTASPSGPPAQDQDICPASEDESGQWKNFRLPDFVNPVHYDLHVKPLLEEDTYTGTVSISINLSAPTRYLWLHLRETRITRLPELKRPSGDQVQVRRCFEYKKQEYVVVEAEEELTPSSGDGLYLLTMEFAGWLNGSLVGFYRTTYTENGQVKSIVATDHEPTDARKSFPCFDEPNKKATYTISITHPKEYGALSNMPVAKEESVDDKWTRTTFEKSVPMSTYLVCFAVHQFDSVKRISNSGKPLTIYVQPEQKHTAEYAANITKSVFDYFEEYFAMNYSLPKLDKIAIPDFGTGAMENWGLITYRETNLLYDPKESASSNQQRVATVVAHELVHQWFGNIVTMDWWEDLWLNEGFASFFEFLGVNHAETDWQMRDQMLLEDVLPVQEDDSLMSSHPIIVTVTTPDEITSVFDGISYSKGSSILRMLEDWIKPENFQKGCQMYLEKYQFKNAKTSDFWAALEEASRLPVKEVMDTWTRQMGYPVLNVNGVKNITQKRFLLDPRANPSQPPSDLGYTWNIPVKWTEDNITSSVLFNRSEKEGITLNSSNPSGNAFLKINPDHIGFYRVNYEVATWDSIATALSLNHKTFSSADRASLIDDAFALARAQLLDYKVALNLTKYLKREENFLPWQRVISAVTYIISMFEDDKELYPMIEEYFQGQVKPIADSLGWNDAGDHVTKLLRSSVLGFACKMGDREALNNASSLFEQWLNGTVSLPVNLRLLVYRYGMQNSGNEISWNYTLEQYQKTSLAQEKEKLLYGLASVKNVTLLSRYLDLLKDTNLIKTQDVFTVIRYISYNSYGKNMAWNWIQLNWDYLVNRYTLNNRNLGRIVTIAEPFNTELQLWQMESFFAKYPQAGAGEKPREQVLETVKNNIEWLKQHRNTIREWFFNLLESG

T1 sequence (P05106 742-788): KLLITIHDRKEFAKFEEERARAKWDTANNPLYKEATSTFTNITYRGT

RAILYRLAN (not fully specified (residue 5); also: displayed on phage, whole phage tested) [Fyn-phosphorylated phage displaying RAILYRLAN (SEQ ID NO:116)]: the “β3 or β5/GST” value in assay [1] came to 1.3 ratio. In assay [2], this molecule returned a Phos/Unphos of 2.8 ratio. Further, the “β3 or β5/BSA” value in assay [3] is 20 ratio.

B1: CPRECESIC (SEQ ID NO:123) soluble cyclic peptide (peptide)
peptide: CPRECESIC
modifications: disulfide (positions not given here); not fully specified; also: disulfide positions not determined, mixture of six MS species, possibly dimers
Consider B1, for which, in assay [4], the “IC50 for APA enzyme inhibition (α-glutamyl-p-nitroanilide, colorimetric, SK-RC49/APA cells)” value was 800 µM.
